# Data reported in publication PMC3695512, “Recognition of two distinct elements in the RNA substrate by the RNA-binding domain of the T. thermophilus DEAD box helicase Hera”.
# Substitutions are numbered along the chain they refer to.
# T1: Hera_RBD R487A (Thermus thermophilus, UniProt O07897 424-510, R487A)
# T1 sequence: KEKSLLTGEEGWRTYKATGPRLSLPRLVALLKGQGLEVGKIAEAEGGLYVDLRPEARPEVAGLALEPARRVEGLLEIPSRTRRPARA
# T2: Hera_RBD K439A (Thermus thermophilus, UniProt O07897 424-510, K439A)
# T2 sequence: T1 sequence with K16A, A64R
# T3: Hera_RBD S446C (Thermus thermophilus, UniProt O07897 424-510, S446C)
# T3 sequence: T1 sequence with S23C, A64R
# T4: Hera_RBD Q457C (Thermus thermophilus, UniProt O07897 424-510, Q457C)
# T4 sequence: T1 sequence with Q34C, A64R
# T5: Hera_208-419 (RecA_C_DD) (Thermus thermophilus, UniProt O07897 208-419)
# T5 sequence: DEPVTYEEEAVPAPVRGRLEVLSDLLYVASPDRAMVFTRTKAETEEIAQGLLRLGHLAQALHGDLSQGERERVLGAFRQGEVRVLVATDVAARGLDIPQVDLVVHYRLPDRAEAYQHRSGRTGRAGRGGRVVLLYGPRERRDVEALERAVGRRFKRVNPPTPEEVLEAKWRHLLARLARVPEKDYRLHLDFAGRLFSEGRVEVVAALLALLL
# Key:
# Hera_RBD R487A = molecular target: T1, Hera_RBD R487A; assay: fluorescence anisotropy; 5 mM Mg2+; Anisotropy: 50 mM Tris/HCl pH 7.5, 150 mM NaCl, 5 mM MgCl2 (Fig 2), 25 C, 50 nM RNA; EMSA: same Tris/NaCl, 12% glycerol, 25 C; NMR: 25 mM Bis-Tris/HCl pH 6.0, 50 mM NaCl, 10% D2O, 37 C; conditions: protein: recombinant; label: 5'-fluorescein; hairpin with 5' single strand
# Hera_RBD K439A = molecular target: T2, Hera_RBD K439A; assay: as above; conditions: protein: recombinant; label: 5'-fluorescein; hairpin with 5' single strand
# Hera_RBD S446C = molecular target: T3, Hera_RBD S446C; assay: as above; conditions: protein: recombinant; label: 5'-fluorescein; hairpin with 5' single strand
# Hera_RBD Q457C = molecular target: T4, Hera_RBD Q457C; assay: as above; conditions: protein: recombinant; label: 5'-fluorescein; hairpin with 5' single strand
# Hera_208-419 (RecA_C_DD) = molecular target: T5, Hera_208-419 (RecA_C_DD); assay: fluorescence anisotropy; 5 mM Mg2+; compared with full-length Hera; Anisotropy: 50 mM Tris/HCl pH 7.5, 150 mM NaCl, 5 mM MgCl2 (Fig 2), 25 C, 50 nM RNA; EMSA: same Tris/NaCl, 12% glycerol, 25 C; NMR: 25 mM Bis-Tris/HCl pH 6.0, 50 mM NaCl, 10% D2O, 37 C; conditions: protein: recombinant; chain copies: 2; label: 5'-fluorescein; hairpin with 5' single strand
binder,measurement,setting,value
GCAGGUCCCAAGGGUUGGGCUGUUCGCCCAUU (structured_RNA) [32mer],binding signal,Hera_RBD R487A,< 5 fold Kd increase
same,binding signal,Hera_RBD K439A,< 5 fold Kd increase
same,binding signal,Hera_RBD S446C,< 5 fold Kd increase
same,binding signal,Hera_RBD Q457C,< 5 fold Kd increase
same,binding signal,Hera_208-419 (RecA_C_DD),~70 fold Kd increase
